Target: T1, human PAR1 (AA #27-102)/thioredoxin fusion protein (UniProt P25116)
T1 sequence: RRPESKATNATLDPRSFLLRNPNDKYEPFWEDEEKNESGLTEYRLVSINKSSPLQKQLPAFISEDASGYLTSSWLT

Question: For thrombin, which proteolytic cleavage is on record?
Answer: Its proteolytic cleavage is “The PAR1/thioredoxin was cleaved to completion with thrombin”.

Source: patent US20080044424
